T1: VEGF(8-109) (UniProt P15692 214-315)
T1 construct: range 8-109; Covalently coupled to the BIACORE chip
T1 sequence (looked up): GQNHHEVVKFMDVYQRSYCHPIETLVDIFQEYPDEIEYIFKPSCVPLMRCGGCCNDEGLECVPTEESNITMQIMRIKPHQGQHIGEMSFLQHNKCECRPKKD


Key:
VEGF(8-109) [1] = target: T1, VEGF(8-109); assay: SPR (BIACORE-2000), ratio against Y0192
VEGF(8-109) [2] = target: T1, VEGF(8-109); assay: SPR (BIACORE-2000), VEGF(8-109) coupled to the chip, Fab injected, 25 C
VEGF(8-109) [3] = target: T1, VEGF(8-109); assay: SPR (BIACORE-2000), Kd calculated as koff/kon

Binder | Kd(wt)/Kd(mut) (VEGF(8-109) [1]) | koff (VEGF(8-109) [2]) | kon (VEGF(8-109) [2]) | Kd (VEGF(8-109) [3])
Y0239-19 (Fab, V domains shown, Expressed as Fab; also called insertion variant Y0239-19; VNERK motif variant) VH: EVQLVESGGGLVQPGGSLRLSCAASGYTFTNYGMNWVRQAPGKGLEWVGWINTYTGEPTYAADFKRRFTFSLDTSKSTAYLQMNSLRAEDTAVYYCAKYPHYYVNERKSHWYFDVWGQGTL VL: DIQLTQSPSSLSASVGDRVTITCRANEQLSNYLNWYQQKPGKAPKVLIYFTSSLHSGVPSRFSGSGSGTDFTLTISSLQPEDFATYYCQQYSTVPWTFGQGTKVEIKR | 9.7 fold |  |  | 
Y0239-8 (Fab, V domains shown, Clone from library YC-95 (G104 replaced by a random peptide) on pY0192; Expressed as Fab; The limits of the flanking pieces are my reading) VH: EVQLVESGGGLVQPGGSLRLSCAASGYTFTNYGMNWVRQAPGKGLEWVGWINTYTGEPTYAADFKRRFTFSLDTSKSTAYLQMNSLRAEDTAVYYCAKYPHYYLRDGRSSHWYFDVWGQGTL VL: DIQLTQSPSSLSASVGDRVTITCRANEQLSNYLNWYQQKPGKAPKVLIYFTSSLHSGVPSRFSGSGSGTDFTLTISSLQPEDFATYYCQQYSTVPWTFGQGTKVEIKR | 5.8 fold |  |  | 
Y0239-9 (Fab, V domains shown, Clone from library YC-95 on pY0192; Expressed as Fab; The limits of the flanking pieces are my reading) VH: EVQLVESGGGLVQPGGSLRLSCAASGYTFTNYGMNWVRQAPGKGLEWVGWINTYTGEPTYAADFKRRFTFSLDTSKSTAYLQMNSLRAEDTAVYYCAKYPHYYLGESSHWYFDVWGQGTL VL: DIQLTQSPSSLSASVGDRVTITCRANEQLSNYLNWYQQKPGKAPKVLIYFTSSLHSGVPSRFSGSGSGTDFTLTISSLQPEDFATYYCQQYSTVPWTFGQGTKVEIKR | 6 fold |  |  | 
Y0239-2 (Fab, V domains shown, Clone from library YC-95 on pY0192; Expressed as Fab; The limits of the flanking pieces are my reading) VH: EVQLVESGGGLVQPGGSLRLSCAASGYTFTNYGMNWVRQAPGKGLEWVGWINTYTGEPTYAADFKRRFTFSLDTSKSTAYLQMNSLRAEDTAVYYCAKYPHYYKNDKSSHWYFDVWGQGTL VL: DIQLTQSPSSLSASVGDRVTITCRANEQLSNYLNWYQQKPGKAPKVLIYFTSSLHSGVPSRFSGSGSGTDFTLTISSLQPEDFATYYCQQYSTVPWTFGQGTKVEIKR | 0.6 fold |  |  | 
Y0239-12 (Fab, V domains shown, Clone from library YC-98 on pY0192; Expressed as Fab; The limits of the flanking pieces are my reading) VH: EVQLVESGGGLVQPGGSLRLSCAASGYTFTNYGMNWVRQAPGKGLEWVGWINTYTGEPTYAADFKRRFTFSLDTSKSTAYLQMNSLRAEDTAVYYCAKYPHYYAHEKKSHWYFDVWGQGTL VL: DIQLTQSPSSLSASVGDRVTITCRANEQLSNYLNWYQQKPGKAPKVLIYFTSSLHSGVPSRFSGSGSGTDFTLTISSLQPEDFATYYCQQYSTVPWTFGQGTKVEIKR | 4.8 fold |  |  | 

The next lines start with the values.

Kd(wt)/Kd(mut) (VEGF(8-109) [1]) | koff (VEGF(8-109) [2]) | kon (VEGF(8-109) [2]) | Kd (VEGF(8-109) [3]) | Binder
1.1 fold | 0.000129 s⁻¹ | 47000 M⁻¹ s⁻¹ | 2.7 nM | Y0241-6 (Fab, V domains shown, Clone from library YC-86 built on pY0192, expressed as Fab) VH: EVQLVESGGGLVQPGGSLRLSCAASGYDYTNYGMNWVRQAPGKGLEWVGWINTYTGEPTYAADFKRRFTFSLDTSKSTAYLQMNSLRAEDTAVYYCAKYPHYYGSSHWYFDVWGQGTL VL: DIQLTQSPSSLSASVGDRVTITCRANEQLSNYLNWYQQKPGKAPKVLIYFTSSLHSGVPSRFSGSGSGTDFTLTISSLQPEDFATYYCQQYSTVPWTFGQGTKVEIKR
5 fold |  |  |  | Y0261-6 (Fab, V domains shown, Clone from library YC-98 on pY0192; Expressed as Fab; The limits of the flanking pieces are my reading) VH: EVQLVESGGGLVQPGGSLRLSCAASGYTFTNYGMNWVRQAPGKGLEWVGWINTYTGEPTYAADFKRRFTFSLDTSKSTAYLQMNSLRAEDTAVYYCAKYPHYYLKDKKSHWYFDVWGQGTL VL: DIQLTQSPSSLSASVGDRVTITCRANEQLSNYLNWYQQKPGKAPKVLIYFTSSLHSGVPSRFSGSGSGTDFTLTISSLQPEDFATYYCQQYSTVPWTFGQGTKVEIKR
5.8 fold |  |  |  | Y0240-1 (Fab, V domains shown, Clone from library YC-98 (G104 and S105 replaced by a random peptide) on pY0192; Expressed as Fab; The limits of the flanking pieces are my reading) VH: EVQLVESGGGLVQPGGSLRLSCAASGYTFTNYGMNWVRQAPGKGLEWVGWINTYTGEPTYAADFKRRFTFSLDTSKSTAYLQMNSLRAEDTAVYYCAKYPHYYLTDHKSHWYFDVWGQGTL VL: DIQLTQSPSSLSASVGDRVTITCRANEQLSNYLNWYQQKPGKAPKVLIYFTSSLHSGVPSRFSGSGSGTDFTLTISSLQPEDFATYYCQQYSTVPWTFGQGTKVEIKR
8 fold |  |  |  | Y0313-2 (Fab, V domains shown, Combines the CDR H3 insertion of Y0239-19 with T28D/N31H; Prepared as Fab; also called CDR combination variant Y0313-2; Insert-Fab Y0313-2) VH: EVQLVESGGGLVQPGGSLRLSCAASGYDFTHYGMNWVRQAPGKGLEWVGWINTYTGEPTYAADFKRRFTFSLDTSKSTAYLQMNSLRAEDTAVYYCAKYPHYYVNERKSHWYFDVWGQGTL VL: DIQLTQSPSSLSASVGDRVTITCRANEQLSNYLNWYQQKPGKAPKVLIYFTSSLHSGVPSRFSGSGSGTDFTLTISSLQPEDFATYYCQQYSTVPWTFGQGTKVEIKR
1.6 fold |  |  |  | Y0242-1 (Fab, V domains shown, Clone from library YC-90; Expressed as Fab) VH: EVQLVESGGGLVQPGGSLRLSCAASGYTFTNYGMNWVRQAPGKGLEWVGWINTWTGEPTYAADFKRRFTFSLDTSKSTAYLQMNSLRAEDTAVYYCAKYPHYYGSSHWYFDVWGQGTL VL: DIQLTQSPSSLSASVGDRVTITCRANEQLSNYLNWYQQKPGKAPKVLIYFTSSLHSGVPSRFSGSGSGTDFTLTISSLQPEDFATYYCQQYSTVPWTFGQGTKVEIKR
1 fold | 0.000128 s⁻¹ | 46000 M⁻¹ s⁻¹ | 3 nM | Y0241-7 (Fab, V domains shown, Clone from library YC-86 built on pY0192, expressed as Fab; This is not written as a substitution) VH: EVQLVESGGGLVQPGGSLRLSCAASGYDWTNYGMNWVRQAPGKGLEWVGWINTYTGEPTYAADFKRRFTFSLDTSKSTAYLQMNSLRAEDTAVYYCAKYPHYYGSSHWYFDVWGQGTL VL: DIQLTQSPSSLSASVGDRVTITCRANEQLSNYLNWYQQKPGKAPKVLIYFTSSLHSGVPSRFSGSGSGTDFTLTISSLQPEDFATYYCQQYSTVPWTFGQGTKVEIKR
